The target in series [1] is LrpA1 (Halobacterium salinarum, UniProt B0R4X4). As to the kind of experiment: analytical DNA-affinity chromatography with aspB3 promoter, SDS-PAGE densitometry. The series is classed as biochemical. The settings on record: 5 mM L-aspartate; 3 M KCl, 1 M NaCl, 5 mM MgCl2, 10 mM HEPES, pH 7.1; room temperature, 4 h; effector of DNA binding, indirect read-out.
For series [2], the target named is T1, LrpA1 (Halobacterium salinarum R1) (UniProt B0R4X4).
T1 sequence: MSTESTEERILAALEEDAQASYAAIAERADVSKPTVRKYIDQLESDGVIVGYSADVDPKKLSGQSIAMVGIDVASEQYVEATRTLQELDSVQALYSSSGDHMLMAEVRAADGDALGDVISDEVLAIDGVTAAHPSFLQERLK
The series is described as follows: DNA-affinity chromatography (pull-down), SDS-PAGE densitometry. The settings on record: CFE buffer: 3 M KCl, 1 M NaCl, 5 mM MgCl2, 10 mM HEPES pH 7.1; room temperature, 4 h; 2 nmol LrpA1, 61 pmol biotinylated DNA; elution with 1% SDS.

Series [3] concerns LrpA1 (Halobacterium salinarum R1). The description is as above. Conditions: CFE buffer: 3 M KCl, 1 M NaCl, 5 mM MgCl2, 10 mM HEPES pH 7.1, room temperature, 4 h, 2 nmol LrpA1, 61 pmol biotinylated DNA.
Series [4] concerns the molecule itself. As to the kind of experiment: SEC; Superdex 200 3.2/3 column on a SMART device, 50 ul per min, CFE buffer (3 M KCl; 1 M NaCl; 10 mM HEPES, pH 7.1); LrpA1-His6 after renaturation; monomer to dimer. For orientation: SEC sorts molecules by how far they enter the pores of the column.

The term stoichiometry N denotes the number of molecules, sites or subunits per partner or assembly.

Consider `N[C@@H](CC(=O)O)C(=O)O` [L-aspartate], for which the “relative binding efficiency to aspB3-Pincl DNA” value in series [1] is listed as “resulting in significantly enhanced binding of LrpA1 to the aspB3Pincl sequence”. Take “ACGACACCGGGTCGTTTTGATTGTCGGCTACGTGTCGCAGTGTTGGCGGTAGCGCCGCTCCAACGGTGGTTCCGTGGCGTTCCGCTGTCGGTTGACGATTCGGAAGATACCCTTTCACACGAACCCCCTATCCTGACGTGAGCACTGAATCGACAGAAGAGCGAATCCTCGCCGCGCTCGAAGAGGACGCGCAAGCGTCGTATGCGGCCATCGCGGAGCGTGCGGACGTCTCCA (double strand) [lrpA1-Pincl (mutated)]”: the binding signal (% of lrpA1-Pincl) in series [2] was 24. As to “ACGACACCGGGTCGTTTTGATTGTCGGCTACGTGTCGCAGTGTTGGCGGTAGCGCCGCTCCAACGGTGGTTCCGTGGCGTTCCGCTGTCGGTTGACGATTCGGAAGATATTTTTTCACACGAACCAAATATCCTGACGTGAGCACTGAATCGACAGAAGAGCGAATCCTCGCCGCGCTCGAAGAGGACGCGCAAGCGTCGTATGCGGCCATCGCGGAGCGTGCGGACGTCTCCA (double strand) [lrpA1-Pincl]”, in series [2], the binding signal (% band density) stood at 100. On the same count and under the same terms, the result for “ATCGCGCTTGAACGTCTGCATACGTCCGCTACGCACCAGGCGCGCAAAACTTCAGGGGGTTCGGGACCCGCGGGTTGTGCCGTGATAGCACACGCGTCCCGCAGGAACGATTATGAGGGATGGCCGCGATCCTGCTGGCATGCCTTCGGAGCGCGCGGCTGCGGTCACGCCGTTCGCCGCGATGGATGTCCTCGAACGCGCCGCCGAC (double strand) [aspB3-Pincl]” reads 100. Turning to aspB3-Pincl, the binding signal (% band density) in series [3] (5 mM L-arginine, text: binding not enhanced by arginine, elution with 1% SDS) worked out at 100; in series [3] (5 mM L-aspartate, elution with 1% SDS), 100. Moreover, in series [3] (no amino acid (arginine experiment), elution with 1% SDS), the binding signal (% of aspB3-Pincl + 5 mM Arg) was 77. The binding signal (% of aspB3-Pincl + 5 mM Asp) in series [3] (no amino acid (aspartate experiment), elution with 1% SDS) came out at 34. Take flgB1 control DNA: the binding signal (% of aspB3-Pincl + 5 mM Arg) in series [3] (5 mM L-arginine, non-specific background, elution with 1% SDS) turned out to be 30. Moreover, the binding signal (% of aspB3-Pincl + 5 mM Asp) in series [3] (5 mM L-aspartate, non-specific background, elution with 1% SDS) amounted to 7. In series [3] (no amino acid, non-specific background, elution with 1% SDS), this molecule displayed a binding signal (% of lrpA1-Pincl) of 37. The molecule lrpA1-Pincl yielded a binding signal (% band density) in series [3] (no amino acid, elution with 1% …) of 100.

B1: H. salinarum LrpA1 (OE2621R), His6-tagged (natural protein, Halobacterium salinarum R1, UniProt B0R4X4 1-142, looked up)
chain: MSTESTEERILAALEEDAQASYAAIAERADVSKPTVRKYIDQLESDGVIVGYSADVDPKKLSGQSIAMVGIDVASEQYVEATRTLQELDSVQALYSSSGDHMLMAEVRAADGDALGDVISDEVLAIDGVTAAHPSFLQERLK
notes: Leucine-responsive regulatory protein homologue LrpA1 of Halobacterium salinarum R1, locus OE2621R; theoretical size of the monomer 15.2 kDa; amplified by PCR and cloned NdeI/XhoI into pET26b; the cloning primers are in additional file 10; also called LrpA1-His6; transcription regulator LrpA1; source: E. coli BL21(DE3), pET26b; purified on Ni-NTA in 8 M urea, renatured by dialysis against high …
With B1, the “stoichiometry N” value in series [4] stood at 2.

The record behind these values is publication PMC2894021, “Transcriptional control by two leucine-responsive regulatory proteins in Halobacterium salinarum R1” (BMC Molecular Biology, 2010).
